Reference: the supplement of paper PMC9112550, “Optimization of the antimicrobial peptide Bac7 by deep mutational scanning” (BMC Biology, 2022)

tested on: Escherichia coli TOP10; experiment: shrunken log2 fold change of peptide-encoding DNA abundance (4.5 h post-induction vs induction); higher = less antimicrobial activity (less host growth inhibition); settings: time post-induction: 4.5 h; library: site-saturation at positions 5, 18, 19, 20
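Further: peptides expressed intracellularly from a pBAD plasmid library in pooled LB shake-flask culture, induced with 0.3% L-arabinose, DNA abundance read by NGS, three biological replicates, DESeq2 with apeglm shrinkage.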

| Sequence | shrunken log2 fold change |
| --- | --- |
| RRIRSRPPRLPRPRPRPEMSPRP | 0.259 |
| RRIRWRPPRLPRPRPRPKMIPRP | -0.22 |
| RRIRERPPRLPRPRPRPYNIPRP | -0.184 |
| RRIRSRPPRLPRPRPRPSFLPRP | 0.182 |
| RRIRYRPPRLPRPRPRPCLVPRP | -0.0874 |
| RRIRRRPPRLPRPRPRPPDEPRP | 0.726 |
| RRIRKRPPRLPRPRPRPIDEPRP | -0.148 |
| RRIRCRPPRLPRPRPRPKSTPRP | -0.137 |
| RRIRRRPPRLPRPRPRPGESPRP | 0.0142 |
| RRIRWRPPRLPRPRPRPRVKPRP | 0.13 |
| RRIRPRPPRLPRPRPRPTAMPRP | 0.0577 |
| RRIRYRPPRLPRPRPRPKELPRP | -0.0199 |
| RRIRGRPPRLPRPRPRPMHDPRP | 0.361 |
| RRIRCRPPRLPRPRPRPDKTPRP | -0.0581 |
| RRIRGRPPRLPRPRPRPNNEPRP | 0.306 |
| RRIRFRPPRLPRPRPRPWSLPRP | -0.529 |
| RRIRMRPPRLPRPRPRPEKYPRP | 0.746 |
| RRIRYRPPRLPRPRPRPICVPRP | -0.293 |
| RRIRARPPRLPRPRPRPGWAPRP | 0.72 |
| RRIRHRPPRLPRPRPRPNVIPRP | 0.0378 |
| RRIRDRPPRLPRPRPRPVGIPRP | -0.0542 |
| RRIRVRPPRLPRPRPRPNGPPRP | 0.144 |
| RRIRHRPPRLPRPRPRPKQTPRP | 0.179 |
| RRIRFRPPRLPRPRPRPLSLPRP | -0.0575 |
| RRIRNRPPRLPRPRPRPYHTPRP | -0.0317 |

| Sequence | shrunken log2 fold change |
| --- | --- |
| RRIRGRPPRLPRPRPRPMRSPRP | 0.64 |
| RRIRKRPPRLPRPRPRPVKCPRP | 0.105 |
| RRIRERPPRLPRPRPRPLVKPRP | -0.575 |
| RRIRYRPPRLPRPRPRPNPFPRP | -0.0444 |
| RRIRTRPPRLPRPRPRPCGFPRP | 0.268 |
| RRIRFRPPRLPRPRPRPWWRPRP | -0.471 |
| RRIRPRPPRLPRPRPRPIYIPRP | -0.36 |
| RRIRTRPPRLPRPRPRPEHKPRP | -0.0645 |
| RRIRVRPPRLPRPRPRPGPMPRP | 0.189 |
| RRIRNRPPRLPRPRPRPIKWPRP | -0.498 |
| RRIRNRPPRLPRPRPRPKINPRP | -0.387 |
| RRIRSRPPRLPRPRPRPIAHPRP | -0.0401 |
| RRIRWRPPRLPRPRPRPICEPRP | 0.389 |
| RRIRYRPPRLPRPRPRPRIRPRP | 0.0291 |
| RRIRERPPRLPRPRPRPEKPPRP | 3.84 |
| RRIRPRPPRLPRPRPRPCNGPRP | -0.202 |
| RRIRKRPPRLPRPRPRPKVLPRP | 0.0605 |
| RRIRKRPPRLPRPRPRPPRLPRP | 0.678 |
| RRIRCRPPRLPRPRPRPEQQPRP | -0.0118 |
| RRIRFRPPRLPRPRPRPDDGPRP | -0.0366 |
| RRIRSRPPRLPRPRPRPMSMPRP | -0.293 |
| RRIRNRPPRLPRPRPRPTWFPRP | 0.415 |
| RRIRLRPPRLPRPRPRPWNVPRP | -0.0513 |
| RRIRRRPPRLPRPRPRPEWPPRP | 0.387 |
| RRIRKRPPRLPRPRPRPRFNPRP | 0.0969 |

| Sequence | shrunken log2 fold change |
| --- | --- |
| RRIRHRPPRLPRPRPRPTSTPRP | -0.199 |
| RRIRSRPPRLPRPRPRPPPDPRP | 0.848 |
| RRIRNRPPRLPRPRPRPIKTPRP | -0.0156 |
| RRIRRRPPRLPRPRPRPMSQPRP | 0.247 |
| RRIRNRPPRLPRPRPRPNELPRP | 0.106 |
| RRIRQRPPRLPRPRPRPVVRPRP | 0.169 |
| RRIRSRPPRLPRPRPRPTTSPRP | 0.094 |
| RRIRMRPPRLPRPRPRPQEIPRP | -0.00046 |
| RRIRGRPPRLPRPRPRPHYGPRP | -0.627 |
| RRIRFRPPRLPRPRPRPHLFPRP | -0.238 |
| RRIRKRPPRLPRPRPRPVSLPRP | 0.0505 |
| RRIRKRPPRLPRPRPRPGNQPRP | 0.0471 |
| RRIRVRPPRLPRPRPRPANEPRP | -0.174 |
| RRIRLRPPRLPRPRPRPSNFPRP | -0.956 |
| RRIRGRPPRLPRPRPRPNCCPRP | 0.245 |
| RRIRNRPPRLPRPRPRPYMVPRP | -0.107 |
| RRIRSRPPRLPRPRPRPVNNPRP | -0.363 |
| RRIRGRPPRLPRPRPRPHSSPRP | -0.144 |
| RRIRTRPPRLPRPRPRPTFAPRP | 0.459 |
| RRIRIRPPRLPRPRPRPYTMPRP | -0.758 |
| RRIRIRPPRLPRPRPRPQWYPRP | -0.485 |
| RRIRYRPPRLPRPRPRPYACPRP | 0.00253 |
| RRIRMRPPRLPRPRPRPMIAPRP | 0.0314 |
| RRIRCRPPRLPRPRPRPWSTPRP | -0.148 |
| RRIRMRPPRLPRPRPRPFTCPRP | -0.173 |

| Sequence | shrunken log2 fold change |
| --- | --- |
| RRIRTRPPRLPRPRPRPMVFPRP | 0.0283 |
| RRIRDRPPRLPRPRPRPINFPRP | -0.0167 |
| RRIRLRPPRLPRPRPRPIHAPRP | 0.111 |
| RRIRVRPPRLPRPRPRPPNCPRP | 0.194 |
| RRIRNRPPRLPRPRPRPKWLPRP | -0.00522 |
| RRIRMRPPRLPRPRPRPCKPPRP | -0.173 |
| RRIRQRPPRLPRPRPRPLEVPRP | -0.0417 |
| RRIRIRPPRLPRPRPRPHRFPRP | -0.62 |
| RRIRQRPPRLPRPRPRPVNEPRP | -0.325 |
| RRIRARPPRLPRPRPRPPVVPRP | 0.378 |
| RRIRPRPPRLPRPRPRPIRLPRP | 0.0338 |
| RRIRPRPPRLPRPRPRPDIQPRP | -0.222 |
| RRIRQRPPRLPRPRPRPAKCPRP | 0.0161 |
| RRIRKRPPRLPRPRPRPQVQPRP | 0.131 |
| RRIRHRPPRLPRPRPRPKWGPRP | 0.177 |
| RRIRDRPPRLPRPRPRPKSIPRP | 0.114 |
| RRIRLRPPRLPRPRPRPPEAPRP | 0.255 |
| RRIRVRPPRLPRPRPRPLAAPRP | 0.152 |
| RRIRCRPPRLPRPRPRPVDGPRP | 0.0228 |
| RRIRARPPRLPRPRPRPEMFPRP | 0.522 |
| RRIRARPPRLPRPRPRPNQAPRP | -0.117 |
| RRIRNRPPRLPRPRPRPCISPRP | -0.802 |
| RRIRVRPPRLPRPRPRPHDKPRP | -0.123 |
| RRIRFRPPRLPRPRPRPNLDPRP | -0.18 |
| RRIRDRPPRLPRPRPRPADCPRP | -0.0601 |

| Sequence | shrunken log2 fold change |
| --- | --- |
| RRIRNRPPRLPRPRPRPRYSPRP | -0.309 |
| RRIRKRPPRLPRPRPRPFKVPRP | -0.0542 |
| RRIRARPPRLPRPRPRPWSAPRP | 0.132 |
| RRIRIRPPRLPRPRPRPKSSPRP | -0.143 |
| RRIRVRPPRLPRPRPRPWTCPRP | -0.0943 |
| RRIRCRPPRLPRPRPRPAIQPRP | -0.0767 |
| RRIRLRPPRLPRPRPRPFIHPRP | -0.807 |
| RRIRIRPPRLPRPRPRPRGRPRP | 0.229 |
| RRIRSRPPRLPRPRPRPSNCPRP | -0.525 |
| RRIRERPPRLPRPRPRPNTWPRP | 0.0226 |
| RRIRHRPPRLPRPRPRPSCKPRP | -0.609 |
| RRIRIRPPRLPRPRPRPCWCPRP | -0.063 |
| RRIRLRPPRLPRPRPRPNCFPRP | -0.0891 |
| RRIRTRPPRLPRPRPRPELGPRP | 0.248 |
| RRIRERPPRLPRPRPRPPWPPRP | 0.408 |
| RRIRPRPPRLPRPRPRPRRTPRP | 0.507 |
| RRIRSRPPRLPRPRPRPSSDPRP | -0.107 |
| RRIRSRPPRLPRPRPRPPRAPRP | 0.567 |
| RRIRSRPPRLPRPRPRPYPVPRP | -0.0856 |
| RRIRRRPPRLPRPRPRPWSAPRP | 0.131 |
| RRIRVRPPRLPRPRPRPWNMPRP | -0.192 |
| RRIRPRPPRLPRPRPRPQVIPRP | -0.0452 |
| RRIRVRPPRLPRPRPRPVNFPRP | 0.02 |
| RRIRDRPPRLPRPRPRPKYSPRP | -0.0792 |
| RRIRYRPPRLPRPRPRPVTRPRP | -0.129 |

| Sequence | shrunken log2 fold change |
| --- | --- |
| RRIRSRPPRLPRPRPRPNKKPRP | -0.194 |
| RRIRHRPPRLPRPRPRPTWPPRP | 0.25 |
| RRIRVRPPRLPRPRPRPSGLPRP | 0.0687 |
| RRIRCRPPRLPRPRPRPRYKPRP | -0.141 |
| RRIRCRPPRLPRPRPRPTPTPRP | 0.982 |
| RRIRDRPPRLPRPRPRPLCSPRP | 0.513 |
| RRIRHRPPRLPRPRPRPKKYPRP | -0.806 |
| RRIRFRPPRLPRPRPRPPLCPRP | 0.282 |
| RRIRWRPPRLPRPRPRPLCDPRP | -0.0525 |
| RRIRPRPPRLPRPRPRPAQYPRP | 0.0469 |
| RRIRPRPPRLPRPRPRPCRMPRP | -0.0012 |
| RRIRMRPPRLPRPRPRPCPHPRP | 0.0961 |
| RRIRKRPPRLPRPRPRPAGNPRP | 0.304 |
| RRIRWRPPRLPRPRPRPLLDPRP | 0.0164 |
| RRIRLRPPRLPRPRPRPPIDPRP | 0.13 |
| RRIRARPPRLPRPRPRPTDPPRP | 0.2 |
| RRIRFRPPRLPRPRPRPWWGPRP | -0.00459 |
| RRIRSRPPRLPRPRPRPGKYPRP | -0.759 |
| RRIRGRPPRLPRPRPRPMMRPRP | 1.01 |
| RRIRTRPPRLPRPRPRPFCKPRP | -0.132 |
| RRIRLRPPRLPRPRPRPIPEPRP | 0.0268 |
| RRIRIRPPRLPRPRPRPGTSPRP | -0.0281 |
| RRIRPRPPRLPRPRPRPIVTPRP | -0.164 |
| RRIRPRPPRLPRPRPRPDKWPRP | -0.0254 |
| RRIRGRPPRLPRPRPRPHCAPRP | 0.606 |
